This assay deals with HumRadA22. Briefly: fluorescence polarisation; competition: displacement of a fluorescently-labelled BRC4 repeat from HumRadA22; KD calculated from IC50; single titrations with three technical replicates at each point; mock (linear) samples with 500 uM TCEP.

Broadly, the Kd is the equilibrium constant for the complex coming apart. Take VNSSAFSGFCTASGKKLNVSCEALQKAVKLFSDIENIS (modifications not checked) [GB1-SP7-His8, mock-stapled (linear)]: the Kd was 39 nM.

(Values after paper PMC10699557, “A recombinant approach for stapled peptide discovery yields inhibitors of the RAD51 recombinase” (Chemical Science, 2023).)
